The text below walks through data of US20060147995A1 (UNILEVER PATENT HOLDINGS B V, published 2006).

For the test, the target named is T1, bovine serum albumin (bovine, UniProt P02769 25-607).
T1 construct: Unconjugated carrier protein used as a control antigen; also called BSA
The test is described as follows: ELISA of soluble HC-V-myc supernatant on immobilised antigens, anti-myc detection. As for the experimental part: Commercially available strains such as TOPIOF (stratagene) and HB2151 (Pharmacia) may alternatively be used. Two transformants of each clone were pre-grown in 10 ml 2TY/Ampicillin/Glucose. After 3-4 hours of growth at 37° C. (OD₆₀₀=0.5), the cells were pelleted by centrifugation and resuspended in 5 ml 2TY/Ampicillin/IPTG (0.1 mM). After 24 hours of incubation at 25° C. the cultures were centrifuged, and the supernatants were analysed for the production of antigen binding activity in essential the same way as described in Example 3. In this case, however, the presence of specifically bound HC-V fragments was detected by incubation with monoclonal anti-myc antibodies, followed by incubation with poly-clonal rabbit-anti-mouse conjugate with alkaline phosphatase.
Another three clones (nR3, nR4 and nR8) were specific for RR6-BSA, but the signals observed were very low. […] This was confirmed by analysis of the supernatants on Western blots (FIG. 3B). The remaining 3 clones (nR6, nR9 and nR10) gave significant signals over background on RR6-BSA, BSA and E3G-OVA (FIG. 3A). It would appear that these three ‘sticky’ clones bind to immobilised proteins in general.
For orientation: ELISA stands for enzyme-linked immunosorbent assay.

T1 sequence (P02769 25-607 limits assumed): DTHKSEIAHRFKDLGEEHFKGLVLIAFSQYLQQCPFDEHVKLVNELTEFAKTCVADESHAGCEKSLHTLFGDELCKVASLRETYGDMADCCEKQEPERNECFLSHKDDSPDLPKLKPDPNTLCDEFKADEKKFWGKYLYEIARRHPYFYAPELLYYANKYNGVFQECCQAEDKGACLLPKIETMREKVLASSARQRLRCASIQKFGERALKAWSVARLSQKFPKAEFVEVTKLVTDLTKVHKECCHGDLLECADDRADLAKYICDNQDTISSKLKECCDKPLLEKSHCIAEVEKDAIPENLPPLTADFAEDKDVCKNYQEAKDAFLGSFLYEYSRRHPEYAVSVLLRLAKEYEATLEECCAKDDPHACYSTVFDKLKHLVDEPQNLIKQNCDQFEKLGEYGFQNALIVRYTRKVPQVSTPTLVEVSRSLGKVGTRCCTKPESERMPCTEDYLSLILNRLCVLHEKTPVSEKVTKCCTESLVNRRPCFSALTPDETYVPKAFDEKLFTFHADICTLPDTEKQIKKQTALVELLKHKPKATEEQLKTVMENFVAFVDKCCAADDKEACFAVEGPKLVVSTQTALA

B1: nR11 (VHH)
VHH: QVQLQESGGGLVQPGDFVRLSCAASRRASSTYAVGWFRQAPGKEREFVGRIHRGGGSTYYADSVKGRFTISRDNTQNTVYLQMNSLKPEDTAVYYCNVRSYWGQGTQVTVSS
notes: Llama HC-V tested as soluble HC-V-myc in crude culture supernatant; also called anti-RR6 HC-V fragment nR11; HC-V-myc
B1: the binding result is on record as “no binding”.
